Measurements: patent US20200079848A1 (Five Prime, published 2020)

Legend:
[1] = molecular target: T1, human ILT4 (hILT4) expressed on cells (human, UniProt Q8N423 22-597); experiment: flow cytometry on hILT4-transfected CHO cells, MFI (PE); EC50 from the table beside the graph; the table has no unit, the concentration axis is in ug/mL
T1 construct: hILT4 on transfected CHO or 293T cells, or native on human monocytes and macrophages; also called LILRB2

[2] = molecular target: T2, hILT4-His-Avi tag (human, UniProt Q8N423 22-459); experiment: SPR Biacore T200, 37 C; antibody captured on protein A/G chip, monomeric hILT4 as analyte; kinetic fit
T2 construct: also called monomeric human ILT4; extracellular region of hILT4 linked to a His-Avi tag
T2 sequence (Q8N423 other isoform, or with tags, fused parts or gaps): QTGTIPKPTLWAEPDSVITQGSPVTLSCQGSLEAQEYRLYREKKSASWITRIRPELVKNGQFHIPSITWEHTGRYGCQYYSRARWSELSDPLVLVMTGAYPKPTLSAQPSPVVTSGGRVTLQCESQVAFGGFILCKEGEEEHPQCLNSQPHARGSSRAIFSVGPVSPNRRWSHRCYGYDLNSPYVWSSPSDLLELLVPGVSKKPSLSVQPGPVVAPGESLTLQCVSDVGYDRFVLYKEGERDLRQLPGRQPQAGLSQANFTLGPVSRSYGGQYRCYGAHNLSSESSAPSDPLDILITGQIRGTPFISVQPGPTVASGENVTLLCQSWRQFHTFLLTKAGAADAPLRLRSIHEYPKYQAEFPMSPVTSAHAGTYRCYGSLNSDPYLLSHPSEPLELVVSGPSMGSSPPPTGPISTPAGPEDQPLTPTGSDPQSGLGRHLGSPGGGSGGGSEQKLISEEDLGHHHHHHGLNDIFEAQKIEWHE
Experimental: The binding kinetics of the parent and germline reversion mutant anti-hILT4 antibodies (in the context of IgG1.3) were measured via Surface Plasmon Resonance (SPR) using a Biacore® T200 instrument. The assay temperature was 37° C. and the running buffer was PBS pH 7.4 supplemented with 0.05% Tween-20. Allanti-hILT4 antibodies were captured on a CM4 chip with pre-immobilized protein A/G (Pierce Thermo Scientific catalog number 21186). […] Monomeric human ILT4 was injected as analyte. […] The hILT4 used in this experiment, comprising the extracellular region of hILT4 linked to a His-Avi tag, consists of the following amino acid sequence: […]

[3] = molecular target: T2, hILT4-His-Avi tag; experiment: SPR Biacore T200, 37 C; antibody captured by anti-human Fc on CM4 chip, hILT4-His-Avi as analyte; 1:1 Langmuir fit
Experimental: The running buffer was 10 mM HEPES pH 7.4 supplemented with 0.05% Tween-20 and 1 g/L BSA. All anti-ILT4 antibodies were captured on a CM4 chip with pre-immobilized anti-human Fc capture antibody from Southern Biotech (catalog number 2081-01). […] All data were double-referenced and fitted to a 1:1 Langmuir model with mass transport using Biacore T200 Evaluation Software version 3.1.

T1 sequence (Q8N423 other isoform, or with tags, fused parts or gaps): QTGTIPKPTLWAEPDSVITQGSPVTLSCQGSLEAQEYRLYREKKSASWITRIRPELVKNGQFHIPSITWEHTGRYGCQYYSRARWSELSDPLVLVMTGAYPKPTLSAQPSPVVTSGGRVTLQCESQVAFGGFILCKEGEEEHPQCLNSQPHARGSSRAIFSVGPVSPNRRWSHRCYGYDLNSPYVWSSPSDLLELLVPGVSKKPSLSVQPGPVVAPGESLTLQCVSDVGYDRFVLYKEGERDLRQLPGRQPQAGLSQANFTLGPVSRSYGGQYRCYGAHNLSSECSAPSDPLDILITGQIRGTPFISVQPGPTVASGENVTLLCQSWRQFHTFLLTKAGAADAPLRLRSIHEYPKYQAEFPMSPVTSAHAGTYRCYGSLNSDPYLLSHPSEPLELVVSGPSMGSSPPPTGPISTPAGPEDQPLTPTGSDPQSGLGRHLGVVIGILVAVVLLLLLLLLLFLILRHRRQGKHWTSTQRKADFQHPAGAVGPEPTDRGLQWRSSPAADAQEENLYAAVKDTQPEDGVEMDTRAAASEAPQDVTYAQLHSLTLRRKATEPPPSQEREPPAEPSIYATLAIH

Binder | EC50 [1] [µg/mL] | Kd [2] [nM] | app. act. [2] [%] | koff [2] [s⁻¹] | kon [2] [M⁻¹ s⁻¹] | further results
9C8.A6 (antibody, V domains shown, Hybridoma antibody (human IgG / human kappa from transgenic mice), tested as hybridoma supernatant) VH: QVQLVQSGAEVKKPGASVKVSCKASGYTFTSSDINWVRQATGQGLEWMGWMNPNSGHTGYAQKFQDRVTLTRDTSISTAYMELSSLRSEDSAVYYCARGGNSIDWGFSYYGLDVWGQGTTVTVSS VL: AIQLTQSPSSLSASVGDRVTITCRASQGISSALAWYQQKPGKAPKLLIYDASSLESGVPSRFSGSGSGTDFTLTISSLQPEDFATYYCQQFNSYPFTFGPGTKVDIK | 0.189 | – | – | – | – | –
21D9.H11 (antibody, V domains shown, Hybridoma antibody (human IgG / human kappa), tested as hybridoma supernatant; also called 21D9 (hybridoma)) VH: EGQLLESGGDLVQPGGSLRLSCATSGFTFSNYAMNWVRQAPGKGLEWISVISVSGGSTYYADSVKGRFTISRDNSKNTLYLQMNSLRAEDTAVYYCAKDYYYDSGSYYDSFFDYWGQGTLVTVSS VL: not shown | 0.0174 | – | – | – | – | –
2E5.A11 (antibody, V domains shown, Hybridoma antibody (human IgG / human kappa), tested as hybridoma supernatant) VH: QVQLVESGGGVVQPGRSLRLSCTASGFTFSNYGMHWVRQAPGKGLEWVAVIWYDGSNEYYAESVKGRLTISRDNSKNTLYLQVNSLRAEDTAVYYCARDPFYGSGNYFDYWGQGTLVTVSS VL: not shown | 0.0986 | – | – | – | – | –
9G4 (antibody, V domains shown, Hybridoma antibody (human IgG / human kappa), tested as hybridoma supernatant; also called 9G4 (hybridoma)) VH: QVQLQESGPGLVKPSETLSLTCTVSGGSISSYYWNWIRQPPGKGLEWLGYIYYSGSTKYNPSLKSRVTISVDTSKNQFSLKLSSVTAADTAVYYCASSGWYYFDYWGQGTLVTVSS VL: EIVLTQSPATLSLSPGERATLSCRASQSVSSYLAWYQQKPGQAPRLLIYDASNRATGIPARFSGSGSGTDFTLTISSLEPEDFAGYYCQQRSYWPWTFGQGTKVEIK | 2.84 | – | – | – | – | –
21D9.b.hIgG1.3 (antibody, Germline reversion mutant of 21D9 (VH G2V, D10G); light chain of 21D9; IgG1.3) heavy: EVQLLESGGGLVQPGGSLRLSCATSGFTFSNYAMNWVRQAPGKGLEWISVISVSGGSTYYADSVKGRFTISRDNSKNTLYLQMNSLRAEDTAVYYCAKDYYYDSGSYYDSFFDYWGQGTLVTVSSASTKGPSVFPLAPSSKSTSGGTAALGCLVKDYFPEPVTVSWNSGALTSGVHTFPAVLQSSGLYSLSSVVTVPSSSLGTQTYICNVNHKPSNTKVDKRVEPKSCDKTHTCPPCPAPEAEGAPSVFLFPPKPKDTLMISRTPEVTCVVVDVSHEDPEVKFNWYVDGVEVHNAKTKPREEQYNSTYRVVSVLTVLHQDWLNGKEYKCKVSNKALPAPIEKTISKAKGQPREPQVYTLPPSREEMTKNQVSLTCLVKGFYPSDIAVEWESNGQPENNYKTTPPVLDSDGSFFLYSKLTVDKSRWQQGNVFSCSVMHEALHNHYTQKSLSLSPG light: not shown | – | 0.34 | 90 | 0.0011 | 3.1e+06 | –
21D9.d.hIgG1.3 (antibody, V domains shown, Germline reversion mutant of 21D9; light chain of 21D9; IgG1.3; also called 21D9.VH-G2V/I48V) VH: EVQLLESGGDLVQPGGSLRLSCATSGFTFSNYAMNWVRQAPGKGLEWVSVISVSGGSTYYADSVKGRFTISRDNSKNTLYLQMNSLRAEDTAVYYCAKDYYYDSGSYYDSFFDYWGQGTLVTVSS VL: not shown | – | 0.35 | 84 | 0.0011 | 3.1e+06 | –
21D9.c.hIgG1.3 (antibody, V domains shown, Germline reversion mutant of 21D9; light chain of 21D9; IgG1.3; also called 21D9.VH-G2V/T24A.IgG1.3) VH: EVQLLESGGDLVQPGGSLRLSCAASGFTFSNYAMNWVRQAPGKGLEWISVISVSGGSTYYADSVKGRFTISRDNSKNTLYLQMNSLRAEDTAVYYCAKDYYYDSGSYYDSFFDYWGQGTLVTVSS VL: not shown | – | 0.42 | 97 | 0.0012 | 3e+06 | –
24E5.A7 (antibody, V domains shown, Hybridoma antibody (human IgG / human kappa), tested as hybridoma supernatant) VH: EVQLLESGGGLVQPGGSLRLSCAASGFTFSSYVMSWVRQAPGKGLEWVSGISGSGGSTYYADSVKGRFTISRDNSKNTLYLQMNSLRAEDTAVYYCAKDQDIIAAYYFVYWGQGTLVTVSS VL: DIQMTQSPSSLSASVGDRVTITCRASQGISSWLAWYQQKPEKAPKSLIYAASSLQSGVPSRFSGSGSGTDFTLTISSLQPEDFATYYCQQYNSYPLTFGGGTKVEIK | 0.268 | – | – | – | – | –
10F10.4 (antibody, human IgG1, kappa, V domains shown, 10F10 with only the light chain reversion T63S) VH: QVQLVESGGGVVQPGRSLRLSCAASGFTFSSYAMHWVRQAPGKGLEWVAIISYDEYNKYYADSVKGRFTISRDNSKNTLYLQMNSLRAEDTAVYYCAREWVGIRYWGQGTLVTVSS VL: AIQLTQSPSSLSASVGDRVTITCRASQGISSALAWFQQKPGKAPKLLIYDASSLESGVPSRFSGSGSGTDFTLTISSLQPEDFATYYCQQFNSYPITFGQGTRLEIKR | – | – | – | – | – | Kd [3]: 22 nM; app. act. [3]: 117%; koff [3]: 0.027 s⁻¹; kon [3]: 1.2e+06 M⁻¹ s⁻¹
